Experimental data from patent US7329737 (DYAX, dated 2008).
Substitutions are numbered along the chain they refer to.

B1: M0107-D05 (Fab, V domains shown)
VH: EVQLLESGGGLVQPGGSLRLSCAASGFTFSNYHMQWVRQAPGKGLEWVSSIYPSGGFTRYADSVKGRFTISRDNSKNTLYLQMNSLRAEDTAVYYCARDGGQGGWGQGTLVTVSS
VL: DIQMTQSPSTLSASVGDRVTITCRASQSISSWLAWYQQKPGKVPKLLIHAASTLQSGVPSRFSGSGSGTDFTLTISSLQPEDVATYYCQKYNSAPLTFGGGTKVEIKR
B2: M0124-G12 (Fab, V domains shown)
VH: EVQLLESGGGLVQPGGSLRLSCAASGFTFSHYWMRWVRQAPGKGLEWVSSIGSSGGMTKYADSVKGRFTISRDNSKNTLYLQMNSLRAEDTAVYYCARALRWRAFDIWGQGTMVTVSS
VL: B1 VL with T10S, L11V, S28G, V43A, H49Y, T53S, V83F, K90Q, Y91A, A94F
B3: M0122-G06 (Fab, V domains shown)
VH: EVQLLESGGGLVQPGGSLRLSCAASGFTFSWYAMHWVRQAPGKGLEWVSVISPSGGATRYADSVKGRFTISRDNSKNTLYLQMNSLRAEDTAVYYCVRASTVTTLFQHWGQGTLVTVSS
VL: AQSALTQPASVSGSPGQSITISCTGTSSDVGGYNYVSWYQQHPGKAPKLMIYDVSKRPSGVSNRFSGSKSGNTASLTISGLQAEDEADYYCSSYTSSITLVVFGGGTKLTVLS
B4: M0117-C04 (Fab, V domains shown)
VH: EVQLLESGGGLVQPGGSLRLSCAASGFTFSHYLMFWVRQAPGKGLEWVSSIWPSGGNTKYADSVKGRFTISRDNSKNTLYLQMNSLRAEDTAVYYCARPAYYYAMDVWGQGTTVTVSS
VL: DIQMTQSPLSLSASVGDRVTITCRASQTFNNYLNWYQQKPGKAPKLLIYAASTLQSGVPSRFSGSGSGTDFTLTISSLQPEDFATYYCQQANSFPFTFGPGTKVDIKR
B5: M0126-B12 (Fab, V domains shown)
VH: EVQLLESGGGLVQPGGSLRLSCAASGFTFSHYVMGWVRQAPGKGLEWVSSIYPSGGKTTYADSVKGRFTISRDNSKNTLYLQMNSLRAEDTAVYYCASPSTGSWSAFDIWGQGTMVTVSS
VL: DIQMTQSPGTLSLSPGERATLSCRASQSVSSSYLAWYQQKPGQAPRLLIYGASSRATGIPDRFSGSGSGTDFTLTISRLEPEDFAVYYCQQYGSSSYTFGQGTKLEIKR
B6: M0127-H05 (Fab, V domains shown)
VH: EVQLLESGGGLVQPGGSLRLSCAASGFTFSHYLMGWVRQAPGKGLEWVSSIWPSGGHTSYADSVKGRFTISRDNSKNTLYLQMNSLRAEDTAVYYCARHYGMDVWGQGTTVTVSS
VL: DIQMTQSPSSLSASVGDRVTITCRASQSISSYLNWYQQKPGKVPKLLIYAASSLQSGVPSRFSGSGSGTDFTLTISSLQPDDFATYYCQQTFSTWTFGQGTKVEIRR
B7: M0127-D05 (Fab, V domains shown)
VH: EVQLLESGGGLVQPGGSLRLSCAASGFTFSHYYMMWVRQAPGKGLEWVSSIGPSGGMTDYADSVKGRFTISRDNSKNTLYLQMNSLRAEDTAVYYCATGGTASLDYWGQGTLVTVSS
VL: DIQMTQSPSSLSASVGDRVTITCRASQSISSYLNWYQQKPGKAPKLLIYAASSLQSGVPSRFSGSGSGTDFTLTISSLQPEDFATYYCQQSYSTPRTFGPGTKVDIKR
B8: M0126-C10 (Fab, V domains shown)
VH: EVQLLESGGGLVQPGGSLRLSCAASGFTFSHYKMHWVRQAPGKGLEWVSSIWPSGGGTFYADSVKGRFTISRDNSKNTLYLQMNSLRAEDTAMYYCARTSGGFGAFDIWGQGTMVTVSS
VL: DIQMTQSPSSLSASVGDRVTITCRAGQTINNYLNWYQQKPGKAPNLLIYAASNLQSGVPSRFSGSKSGTDFTLTISSLQPEDFATYHCQQTYRTPFTFGGGTRVEIKG
B9: M0099-D05 (Fab, V domains shown)
VH: EVQLLESGGGLVQPGGSLRLSCAASGFTFSNYIMSWVRQAPGKGLEWVSSIWPSGGHTRYADSVKGRFTISRDNSKNTLYLQMNSLRAEDTAVYYCARAGSYYAGDYWGQGTLVTVSS
VL: DIQMTQSPGTLSLSPGERATLSCRASQTVSSNYLAWYQQKPGLAPRLLIYGVSNRAAGIPDRFSGRGSGTDFTLIINRLEPEDFAVYYCQHYGSSAFTFGRGTKLEIER
B10: M0095-H10 (Fab, V domains shown)
VH: EVQLLESGGGLVQPGGSLRLSCAASGFTFSNYKMQWVRQAPGKGLEWVSSIYSSGGKTVYADSVKGRFTISRDNSKNTLYLQMNSLRAEDTAVYYCARTPGYNYFDYWGQGTLVTVSS
VL: DIQMTQSPSTLSASVGDRVTITCRASQSISSWLAWYQQKPGKAPKLLIYTASSLESGVPSRFSAGGSGTEFTLTISSLQPDDFGTYYCQQYNSYSLTFGGGTKVEIKR
B11: M0094-F03 (Fab, V domains shown)
VH: EVQLLESGGGLVQPGGSLRLSCAASGFTFSWYQMSWVRQAPGKGLEWVSSIYPSGGATKYADSVKGRFTISRDNSKNTLYLQMNSLRAEDTAMYYCARMGLHHSFDYWGQGTLVTVSS
VL: DIQMTQSPGTLSLSLGETATLSCRASQTVGGSYLAWYRQKPGQAPSLLIYAASNRAPGIPDRFSGSGSGTDFTLTISSLQSEDFAVYYCQQYGSSMYTFGQGTILEIKR
B12: M0131-A03 (Fab, V domains shown)
VH: EVQLLESGGGLVQPGGSLRLSCAASGFTFSWYTMGWVRQAPGKGLEWVSVIYPSGGMTKYADSVKGRFTISRDNSKNTLYLQMNSLRAEDTAVYYCARTSGGTPWGFWGQGTLVTVSS
VL: AQYELTQPASVSGSPGQSITISCTGTNTDVGGYNYVSWYQQYPGKAPKLMIYEVNHRPSGVSNRFSGSKSGNTASLTISGLQAEDEADYYCSSYTYRNTYVFGTGTKVTVLG
B13: M0131-C08 (Fab, V domains shown)
VH: EVQLLESGGGLVQPGGSLRLSCAASGFTFSWYSMTWVRQAPGKGLEWVSSISPSGGATKYADSVKGRFTISRDNSKNTLYLQMNSLRAEDTAVYYCARGGAASLPFDYWGQGTLVTVSS
VL: DIQMTQSPSSVSASVGDRVTITCRASQDVLVSFAWYQQRPGTAPKLLIYAASHLHPGVPSRFSASGSGTDFTLTINGLQPEDFATYYCQQARSFPHTFGQGTRLEKKR
B14: M0112-C12 (Fab, V domains shown)
VH: EVQLLESGGGLVQPGGSLRLSCAASGFTFSRYMMYWVRQAPGKGLEWVSSIYPSGGKTLYADSVKGRFTISRDNSKNTLYLQMNSLRAEDTAVYYCARVGVWYGMDVWGQGTTVTVSS
VL: DIQMTQSPGTLSLSPGERATLSCRASQSVSSSYLAWYQQKPGQAPRLLIYGASSRATGIPDRFSGSGSGTEFTLTISSLQSEDSAVYYCQQYNNWPPLTFGGGTKVEIKR
B15: M0098-C10 (Fab, V domains shown)
VH: EVQLLESGGGLVQPGGSLRLSCAASGFTFSFYSMMWVRQAPGKGLEWVSGISSSGGTTKYADSVKGRFTISRDNSKNTLYLQMNSLRAEDTAVYYCARGGTNYDYVWGSYRSHYYYYGMDVWGQGTTVTVSS
VL: DIQMTQSPSSLSASVGDRVTITCRASHNIYTSLNWLQQKPGKAPKLLIYGASTLENGVPSRFSGSASGTDFTLTISSLQPEDSATYYCQQSYTSVTFGQGTKLEIRR

These binders were tested against T1, hK1 (human tissue kallikrein 1), recombinant (human, UniProt P06870 25-262) (assay: SPR).
T1 construct: Expressed in P. pastoris from KLK1 cDNA and purified; enzymatically active; also called KLK1; Recombinant (Pichia) Kallikrein

Kd [nM]	koff [s⁻¹]	kon [M⁻¹ s⁻¹]	Binder
15.3	0.003	195000	B1
17.2	0.0064	372000	B2
15.2	0.107	7.08e+06	B3
16.6	0.00334	201000	B4
15	0.00579	385000	B5
15.3	0.00439	287000	B6
14.4	0.000921	63900	B7
14.4	0.00648	451000	B8
17.5	0.00578	331000	B9
16.5	0.00918	556000	B10
16.7	0.00644	–	B11
17.4	0.046	2.65e+06	B12
17.7	0.00466	264000	B13
16	0.00465	290000	B14
16.1	0.00193	120000	B15
